1 molecule from patent US20090035308A1 can be followed below.

The assay addresses Notch1-Fc. Nature of the assay: competition ELISA: Dll4-Fc premixed with 50 ng Dll4 (E8)-AP on coated Notch1-Fc; reference Dll4-L1-Fc.

B1: Dll4-L2-Fc (Fc fusion, part only; not given: linker, Fc, not shown: a dimerising Fc or GST)
chain, part: SGVFQLQLQEFINERGVLASGRPCEPGCRTFFRVCLKHFQAVVSPGPCTFGTVSTPVLGTNSFAVRDDSSGGGRNPLQLPFNFTWPGTFSLIIEAWHAPGDDLRPEALPPDALISKIAIQGSLAVGQNWLLDEQTSTLTRLRYSYRVICSDNYYGDNCSRLCKKRNDHFGHYVCQPDGNLSCLPGWTGEYCQQPICLSGCHEQNGYCSKPAECLCRPGWQGRLCNECIPHNGCRHGTCSTPWQCTCDEGWGGLFCDQDLNYCTHHSPCKNGATCSNSGQRSYTCTCRPGYTGVDCELELSECDSNPCRNGGSCKDQEDGYHCLCPPGYYGLHCEHSTLSCADSPCFNGGSCRERNQGANYACECPPNFTGSNCEKKVDRCTSNPCANGGQCLNRGP
With B1, the fold difference between L1 and L2 fusion proteins was determined as 3 fold.
